From patent publication US20020090379A1, “INDUCING ANTIBODY RESPONSE AGAINST SELF-PROTEINS WITH THE AID OF FOREIGN T-CELL EPITOPES” (priority 1993, published 2002)

Assays:
A^k molecule = A^k molecule (Mus musculus, UniProt P01910+P06343); test: Competitive inhibition of radiolabelled peptide binding to affinity purified MHC class II A^k; conditions: 125I-labelled marker HEL(46-61)Y, cold peptide >550 μm, pH 5
Experimental: (§1) Peptide-MHC complexes were obtained by incubating ^125I-labelled peptide (10-100 nM) with affinity purified MHC class II molecules (2- 10 μM) at room temperature for 3 days (S. Mouritsen, J Immunol. 148, 1438-1444, 1992). The following peptides were used as radiolabelled markers of binding: Hb(64-76)Y which binds strongly to the E^k molecule and HEL(46-61)Y which binds strongly to the A^k molecule. These complexes were incubated with large amounts of cold non radiolabelled peptide (>550 μm) which should be sufficient to inhibit totally all immunologically relevant MHC class II binding. Either the same peptides were used or were three different overlapping peptides representing the flanking regions as well as the entire OVA(325-336) sequence, containing the T cell epitope, which was substituted into ubiquitin (see Example 2). The three peptides were: TITLEPSQAVHAA (U(12-26)), PSQAVHAAHAEINEKE (U(19-34)) and HAEINEKEGIPPDQQ (U(27-41)). The reaction buffer contained 8 mM citrate, […], and 0.05% NP-40 (pH 5) and peptide-MHC class II complexes were separated (in duplicate) from free peptide by gel filtration using G25 spun columns. Both the radioaictivities of the excluded “void” volume and of the included “void” were measured by gamma spectrometry. The competitive inhibition of maximal binding (in percent) by addition of cold peptide was calculated.

E^k molecule = test: Competitive inhibition of radiolabelled peptide binding to affinity purified MHC class II E^k; design: species or system mouse; conditions: 125I-labelled marker Hb(64-76)Y, cold peptide >550 μm, pH 5
Experimental: as §1

Q: Which “competitive inhibition of maximal binding by addition of cold peptide” value (“competitive inhibition” for short) (A^k molecule) does the source give for “HEL(46-61): marker peptide which binds strongly to the A^k molecule; cold version used as competitor [reference compound]” here?
A: 97.4%

Q: What about the “competitive inhibition” value (E^k molecule) of the same substance?
A: 0.0%

Q: Which results are given for “TITLEPSQAVHAA [U(12-26), overlapping peptide of the OVA(325-336) region substituted into ubiquitin]”?
A: competitive inhibition of maximal binding by addition of cold peptide (A^k molecule): 35.3%; competitive inhibition of maximal binding by addition of cold peptide (E^k molecule): 45.6%

Q: “PSQAVHAAHAEINEKE [U(19-34), overlapping peptide of the OVA(325-336) region substituted into ubiquitin]” was tested. Which “competitive inhibition” value (A^k molecule) did it give?
A: 44.6%

Q: What about the “competitive inhibition” value (E^k molecule) of the same substance?
A: 12.2%

Q: For “HAEINEKEGIPPDQQ [U(27-41), overlapping peptide of the OVA(325-336) region substituted into ubiquitin]”, which “competitive inhibition” value (A^k molecule) is on record?
A: 7.8%

Q: And the “competitive inhibition” value (E^k molecule)?
A: 0.0%
